# Values of other authors in patent publication US20240173301A1, “2-IMINOBIOTIN FOR USE IN THE TREATMENT OF STROKE” (NEUROPHYXIA B.V., priority 2021, published 2024).
# Details: acute ischemic stroke, intravenous thrombolysis
molecule,measurement,value
"Alteplase (protein, UniProt P00750 36-562, looked up, fibrinolytic drug) Tissue-type plasminogen …: SYQVICRDEKTQMIYQQHQSWLRPVLRSNRVEYCWCNSGRAQCHSVPVKSCSEPRCFNGGTCQQALYFSDFVCQCPEGFAGKCCEIDTRATCYEDQGISYRGTWSTAESGAECTNWNSSALAQKPYSGRRPDAIRLGLGNHNYCRNPDRDSKPWCYVFKAGKYSSEFCSTPACSEGNSDCYFGNGSAYRGTHSLTESGASCLPWNSMILIGKVYTAQNPSAQALGLGKHNYCRNPDGDAKPWCHVLKNRRLTWEYCDVPSCSTCGLRQYSQPQFRIKGGLFADIASHPWQAAIFAKHRRSPGERFLCGGILISSCWILSAAHCFQERFPPHHLTVILGRTYRVVPGEEEQKFEVEKYIVHKEFDDDTYDNDIALLQLKSDSSRCAQESSVVRTVCLPPADLQLPDWTECELSGYGKHEALSPFYSERLKEAHVRLYPSSRCTSQHLLNRTVTDNMLCAGDTRSGGPQANLHDACQGDSGGPLVCLNDGRMTLVGIISWGLGCGQKDVPGVYTKVTNYLDWIRDNMRP",risk of a poor outcome,reduced the risk of a poor outcome
